According to patent US20050282743A1, “Molecular interactions in cells” (Arbor Vita Corporation, priority 2001, published 2005):

Key:
[1] = biological target: GST-PSD95 PDZ domains 1, 2, 3 (Homo sapiens), P78352; assay: G assay competition vs 10 uM biotin-CD95 20-mer; competitor 100 uM
[2] = biological target: GST-PSD95 PDZ domains 1, 2, 3 (Homo sapiens), P78352; assay: G assay competition vs 20 uM biotin-CD46 20-mer; competitor 100 uM
[3] = biological target: GST-PSD95 PDZ domains 1, 2, 3 (Homo sapiens), P78352; assay: G assay competition vs 10 uM biotin-KV1.3 20-mer; competitor 100 uM
[4] = biological target: GST-PSD95 PDZ domains 1, 2, 3 (Homo sapiens), P78352; assay: G assay competition vs 20 uM biotin-CLASP-2 20-mer; competitor 100 uM
[5] = biological target: T1, GST-AF6 PDZ domain 1 (Homo sapiens (Human)), P55196; assay: G' assay; further: key of the grades not given here
T1 chain: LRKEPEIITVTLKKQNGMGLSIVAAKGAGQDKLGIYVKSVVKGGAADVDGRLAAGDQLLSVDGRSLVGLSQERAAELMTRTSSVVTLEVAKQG

[6] = biological target: T2, GST-AIPC PDZ domain 1 (Homo sapiens (Human)), O15018; assay: G' assay; further: key of the grades not given here
T2 chain: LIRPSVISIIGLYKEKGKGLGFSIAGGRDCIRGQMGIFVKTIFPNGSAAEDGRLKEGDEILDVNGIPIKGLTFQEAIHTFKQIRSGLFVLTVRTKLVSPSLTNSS

[7] = biological target: T3, GST-AIPC PDZ domain 4 (Homo sapiens (Human)), O15018; assay: G' assay; further: key of the grades not given here
T3 chain: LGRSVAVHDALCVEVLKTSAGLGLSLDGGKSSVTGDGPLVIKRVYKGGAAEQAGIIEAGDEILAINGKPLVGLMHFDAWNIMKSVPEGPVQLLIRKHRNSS

[8] = biological target: GST-Atrophin-1 Interacting Protein PDZ domain 5 (Rattus norvegicus (Rat)), O88382; assay: G' assay; further: key of the grades not given here
[9] = biological target: T4, GST-DVL2 PDZ domain 1 (Homo sapiens (Human)), O14641; assay: G' assay; further: key of the grades not given here
T4 chain: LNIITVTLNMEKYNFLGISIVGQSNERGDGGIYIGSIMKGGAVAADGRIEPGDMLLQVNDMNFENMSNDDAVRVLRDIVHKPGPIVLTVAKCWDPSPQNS

[10] = biological target: T5, GST-FLJ 10324 PDZ domain 1 [GST: P08515]; assay: G' assay; further: key of the grades not given here
T5 chain: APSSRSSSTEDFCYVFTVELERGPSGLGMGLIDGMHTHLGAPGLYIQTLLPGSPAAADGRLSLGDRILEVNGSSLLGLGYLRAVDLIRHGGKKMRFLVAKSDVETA

[11] = biological target: T6, GST-HEMBA 1003117 PDZ domain 1 (Homo sapiens (Human)), Q96JH8; assay: G' assay; further: key of the grades not given here
T6 chain: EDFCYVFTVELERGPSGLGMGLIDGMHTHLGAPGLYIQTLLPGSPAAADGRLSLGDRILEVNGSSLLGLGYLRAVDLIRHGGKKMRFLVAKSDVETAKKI

[12] = biological target: T7, GST-INADL PDZ domain 3 (Homo sapiens (Human)), Q8NI35; assay: G' assay; further: key of the grades not given here
T7 chain: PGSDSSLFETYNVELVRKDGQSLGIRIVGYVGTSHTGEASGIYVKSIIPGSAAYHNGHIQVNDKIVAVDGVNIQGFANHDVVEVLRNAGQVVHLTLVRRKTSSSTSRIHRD

[13] = biological target: T8, GST-KIAA0561 PDZ domain 1 (Homo sapiens (Human)), O60307; assay: G' assay; further: key of the grades not given here
T8 chain: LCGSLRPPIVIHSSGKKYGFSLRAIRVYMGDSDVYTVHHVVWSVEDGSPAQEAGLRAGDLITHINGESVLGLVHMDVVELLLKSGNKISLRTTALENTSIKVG

[14] = biological target: T9, GST-KIAA0751(L) PDZ domain 1 (Mus musculus (Mouse)), Q9EQZ7; assay: G' assay; further: key of the grades not given here
T9 chain: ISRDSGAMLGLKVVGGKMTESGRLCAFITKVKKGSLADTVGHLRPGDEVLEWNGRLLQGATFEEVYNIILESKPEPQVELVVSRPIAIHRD

[15] = biological target: T10, GST-KIAA0807(S) PDZ domain 1 (Homo sapiens (Human)), Q6P0Q8; assay: G' assay; further: key of the grades not given here
T10 chain: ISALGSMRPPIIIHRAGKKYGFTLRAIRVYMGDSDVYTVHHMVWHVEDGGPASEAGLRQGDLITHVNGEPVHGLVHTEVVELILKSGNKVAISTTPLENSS

[16] = biological target: T11, GST-MINT1 PDZ domains 1, 2, Q02410; assay: G' assay; further: key of the grades not given here
T11 chain: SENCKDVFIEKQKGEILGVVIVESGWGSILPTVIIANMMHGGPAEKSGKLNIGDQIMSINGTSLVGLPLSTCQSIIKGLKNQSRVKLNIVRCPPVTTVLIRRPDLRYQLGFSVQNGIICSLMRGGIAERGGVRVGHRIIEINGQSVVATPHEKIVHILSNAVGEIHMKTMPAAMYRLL

[17] = biological target: T12, GST-MUPP1 PDZ domain 3 (Homo sapiens (Human)), O75970; assay: G' assay; further: key of the grades not given here
T12 chain: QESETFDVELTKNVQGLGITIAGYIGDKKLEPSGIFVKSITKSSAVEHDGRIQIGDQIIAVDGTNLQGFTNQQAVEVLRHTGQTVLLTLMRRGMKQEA

[18] = biological target: T13, GST-MUPP1 PDZ domain 7 (Homo sapiens (Human)), O75970; assay: G' assay; further: key of the grades not given here
T13 chain: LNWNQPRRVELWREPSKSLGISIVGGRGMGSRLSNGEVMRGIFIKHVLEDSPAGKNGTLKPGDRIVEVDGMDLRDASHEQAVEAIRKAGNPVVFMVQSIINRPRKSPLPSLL

[19] = biological target: T14, GST-MUPP1 PDZ domain 9 (Homo sapiens (Human)), O75970; assay: G' assay; further: key of the grades not given here
T14 chain: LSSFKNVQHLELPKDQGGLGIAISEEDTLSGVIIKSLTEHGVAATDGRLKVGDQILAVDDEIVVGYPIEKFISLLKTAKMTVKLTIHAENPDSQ

[20] = biological target: T15, GST-NOS1 PDZ domain 1 (Homo sapiens (Human)), P29475; assay: G' assay; further: key of the grades not given here
T15 chain: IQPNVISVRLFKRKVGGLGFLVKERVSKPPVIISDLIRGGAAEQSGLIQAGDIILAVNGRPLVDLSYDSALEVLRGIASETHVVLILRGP

[21] = biological target: GST-PAR3 PDZ domain 3 (Homo sapiens (Human)), Q8TEW0; assay: G' assay; further: key of the grades not given here
[22] = biological target: T16, GST-PTPL1 PDZ domain 4 (Homo sapiens (Human)), Q12923; assay: G' assay; further: key of the grades not given here
T16 chain: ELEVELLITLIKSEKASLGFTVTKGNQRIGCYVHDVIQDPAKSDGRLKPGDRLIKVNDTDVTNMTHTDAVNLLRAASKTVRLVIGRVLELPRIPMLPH

[23] = biological target: T17, GST-ZO-1 PDZ domain 1 (Rattus norvegicus (Rat)), A0A0G2; assay: G' assay; further: key of the grades not given here
T17 chain: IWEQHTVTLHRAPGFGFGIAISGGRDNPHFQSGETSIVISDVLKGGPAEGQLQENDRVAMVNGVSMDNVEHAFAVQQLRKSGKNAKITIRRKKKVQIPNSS

[24] = biological target: T5, GST-FLJ 10324 PDZ domain 1 [GST: P08515]; assay: G assay titration, PDZ 1 ug/ml
[25] = biological target: T11, GST-MINT1 PDZ domains 1, 2, Q02410; assay: G assay titration, PDZ 2 ug/ml
[26] = biological target: T16, GST-PTPL1 PDZ domain 4 (Homo sapiens …); assay: G assay titration, PDZ 3 ug/ml
[27] = biological target: T13, GST-MUPP1 PDZ domain 7 (Homo sapiens …); assay: G assay titration, PDZ 5 ug/ml
[28] = biological target: T6, GST-HEMBA 1003117 PDZ domain 1 (Homo …); assay: G assay titration, PDZ 0.5 ug/ml
[29] = biological target: GST-PAR3 PDZ domain 3 (Homo sapiens (Human)), Q8TEW0; assay: G assay titration, PDZ 0.5 ug/ml
[30] = biological target: T18, GST-KIAA1634 PDZ domain 2 (Homo sapiens (Human)), Q5TCQ9; assay: G' assay; further: key of the grades not given here
T18 chain: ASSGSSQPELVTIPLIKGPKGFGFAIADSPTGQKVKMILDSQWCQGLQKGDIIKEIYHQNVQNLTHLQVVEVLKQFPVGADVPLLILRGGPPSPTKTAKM

[31] = biological target: T19, GST-PTPL1 PDZ domain 2 (Homo sapiens (Human)), Q12923; assay: G' assay; further: key of the grades not given here
T19 chain: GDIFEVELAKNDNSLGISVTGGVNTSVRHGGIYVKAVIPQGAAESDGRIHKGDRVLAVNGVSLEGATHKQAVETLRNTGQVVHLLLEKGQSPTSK

[32] = biological target: T18, GST-KIAA1634 PDZ domain 2 (Homo sapiens …); assay: G assay titration, PDZ 5 ug/ml
[33] = biological target: T19, GST-PTPL1 PDZ domain 2 (Homo sapiens …); assay: G assay titration, PDZ 5 ug/ml
[34] = biological target: GST-BAI-1 Associated Protein PDZ domain 3 (Homo sapiens (Human)), Q96QZ7; assay: G' assay; further: key of the grades not given here
[35] = biological target: GST-DLG1 PDZ domains 1, 2 (Homo sapiens), Q12959; assay: G' assay; further: key of the grades not given here
[36] = biological target: T20, GST-NeDLG PDZ domains 1, 2, Q92796; assay: G' assay; further: key of the grades not given here
T20 chain: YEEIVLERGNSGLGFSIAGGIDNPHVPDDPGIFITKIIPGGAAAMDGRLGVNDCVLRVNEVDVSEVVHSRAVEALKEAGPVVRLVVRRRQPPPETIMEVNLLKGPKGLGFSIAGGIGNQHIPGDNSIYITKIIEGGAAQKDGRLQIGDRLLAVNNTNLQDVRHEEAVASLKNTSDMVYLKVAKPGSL

[37] = biological target: GST-PSD95 PDZ domains 1, 2, 3 (Homo sapiens), P78352; assay: G' assay; further: key of the grades not given here
[38] = biological target: T21, GST-Syntrophin 1 alpha PDZ domain 1 (Homo sapiens (Human)), Q13424; assay: G' assay; further: key of the grades not given here
T21 chain: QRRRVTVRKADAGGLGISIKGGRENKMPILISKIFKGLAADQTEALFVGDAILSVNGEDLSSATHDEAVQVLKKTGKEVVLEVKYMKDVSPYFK

[39] = biological target: T22, GST-Syntrophin gamma 1 PDZ domain 1 (Homo sapiens (Human)), Q9NSN8; assay: G' assay; further: key of the grades not given here
T22 chain: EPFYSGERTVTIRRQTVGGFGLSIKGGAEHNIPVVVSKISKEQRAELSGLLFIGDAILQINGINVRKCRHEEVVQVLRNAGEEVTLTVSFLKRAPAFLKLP

[40] = biological target: T23, GST-TIP1 PDZ domain 1 (Table 9 insert) (Homo sapiens (Human)), O14907; assay: G' assay; further: key of the grades not given here
T23 chain: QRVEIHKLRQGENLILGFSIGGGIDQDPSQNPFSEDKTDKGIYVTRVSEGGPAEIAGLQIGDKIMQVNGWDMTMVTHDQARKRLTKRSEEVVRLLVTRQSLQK

[41] = biological target: T18, GST-KIAA1634 PDZ domain 2 (Homo sapiens …); assay: G assay titration, PDZ 1 ug/ml
[42] = biological target: T19, GST-PTPL1 PDZ domain 2 (Homo sapiens …); assay: G assay titration, PDZ 0.5 ug/ml

Chain of GST-PSD95 PDZ domains 1, 2, 3 (Homo sapiens), P78352 (P78352 62-395): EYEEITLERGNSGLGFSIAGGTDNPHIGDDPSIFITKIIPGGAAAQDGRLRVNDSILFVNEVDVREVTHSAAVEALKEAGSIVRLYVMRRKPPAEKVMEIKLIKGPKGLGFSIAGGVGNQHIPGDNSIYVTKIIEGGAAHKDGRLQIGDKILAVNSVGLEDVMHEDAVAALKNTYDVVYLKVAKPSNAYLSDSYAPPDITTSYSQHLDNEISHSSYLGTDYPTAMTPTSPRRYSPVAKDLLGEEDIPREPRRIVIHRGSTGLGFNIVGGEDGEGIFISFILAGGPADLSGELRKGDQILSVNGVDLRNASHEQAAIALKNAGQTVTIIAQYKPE
Chain of GST-Atrophin-1 Interacting Protein PDZ domain 5 (Rattus norvegicus (Rat)), O88382 (O88382 1128-1225): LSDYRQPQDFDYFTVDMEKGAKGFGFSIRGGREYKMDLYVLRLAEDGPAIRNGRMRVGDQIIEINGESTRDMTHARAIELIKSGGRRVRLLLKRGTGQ
Chain of GST-PAR3 PDZ domain 3 (Homo sapiens (Human)), Q8TEW0 (Q8TEW0 579-681): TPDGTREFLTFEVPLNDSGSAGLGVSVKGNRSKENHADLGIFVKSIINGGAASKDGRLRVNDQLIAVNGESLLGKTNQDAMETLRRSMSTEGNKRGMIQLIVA
Chain of GST-BAI-1 Associated Protein PDZ domain 3 (Homo sapiens (Human)), Q96QZ7 (Q96QZ7 other isoform, or with tags, fused parts or gaps): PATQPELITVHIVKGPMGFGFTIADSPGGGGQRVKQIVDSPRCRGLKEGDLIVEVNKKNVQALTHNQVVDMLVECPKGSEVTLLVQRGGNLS

REVKFTSL (modifications not checked) [CD46 8-mer]
% binding of labelled 20-mer [1]: 65%
% binding of labelled 20-mer [2]: 95%
% binding of labelled 20-mer [3]: 71%
% binding of labelled 20-mer [4]: 81%

STDNLVRPFMDTLASHQLYI (modifications not checked) [presenilin-2]
Classification [5]: 3 A450 class
Classification [6]: 1 A450 class
Classification [7]: 1 A450 class
Classification [8]: 1 A450 class
Classification [9]: 1 A450 class
Classification [10]: 5 A450 class
Classification [11]: 4 A450 class
Classification [12]: 1 A450 class
Classification [13]: 1 A450 class
Classification [14]: 1 A450 class
Classification [15]: 1 A450 class
Classification [16]: 3 A450 class
Classification [17]: 3 A450 class
Classification [18]: 2 A450 class
Classification [19]: 3 A450 class
Classification [20]: 1 A450 class
Classification [21]: 5 A450 class
Classification [22]: 2 A450 class
Classification [23]: 1 A450 class
Kd [24]: 1 µM
Kd [25]: 6 µM
Kd [26]: 8 µM
Kd [27]: 4 µM
Kd [28]: 4 µM
Kd [29]: 2 µM

IVTVVTMVTNVDFPPKESSL (modifications not checked) [ActRIIA]
Classification [30]: 2 A450 class
Classification [31]: 3 A450 class
Kd [32]: 5 µM
Kd [33]: 5 µM

EDPKDRPSAAHIVEALETDV (modifications not checked) [PDZ-binding kinase (PBK)]
Classification [8]: 1 A450 class
Classification [34]: 1 A450 class
Classification [35]: 1 A450 class
Classification [30]: 3 A450 class
Classification [36]: 1 A450 class
Classification [37]: 1 A450 class
Classification [31]: 4 A450 class
Classification [38]: 1 A450 class
Classification [39]: 1 A450 class
Classification [40]: 1 A450 class
Kd [41]: 7 µM
Kd [42]: 6 µM
